Results from patent US9383360B2, “Compositions and methods relating to lyme disease” (The United States of America, as represented by the …, priority 2012, dated 2016).

How the values were obtained:
[1] = tested on: Aggrecan; assay: BbHtrA proteolysis assay, aggrecan substrate; format: biochemical, bovine, human; conditions: SDS-PAGE, silver stain, FIG. 4A
Method: For proteolysis assays described in Examples herein, purified protein substrates (200-600 nM) and proteases (100-150 nM) were diluted in assay buffer (50 mM HEPES, pH 7.4, 5 mM CaCl2) and incubated overnight at 37° C. Samples were boiled for 4 minutes to inactivate the proteases. Proteoglycans were deglycosylated by overnight incubation at 37° C. with 0.01 U chondroitinase ABC (Seikagaku). Reactions were stopped by the addition of SDS/PAGE sample buffer, boiled for 4 minutes, and electrophoresed on pre-cast Tris-glycine gels (BioRad). Reaction products were visualized by silver staining.
BbHtrA cleaved recombinant human aggrecan (G1-IGD-G2 domains) within the IGD (FIG. 4A). Cleavage of recombinant aggrecan generated three high molecular weight proteolytic fragments which migrated at ˜110 kd, ˜60 kd and ˜50 kd.
BbHtrA also degraded native, fully glycosylated aggrecan (FIG. 4B, lane 5). Again, this degradation required BbHtrA catalytic activity (FIG. 4B, lane 6). The BbHtrA-generated aggrecan fragments appear to be a doublet, unlike those generated by HtrA1.
Purified proteins were incubated with BbHtrA or BbHtrA^S226A as described herein. HtrA (also known as DegP) proteases belong to the family of serine proteases which contain a highly reactive serine residue in their active site. This serine (Ser210 in DegP) is part of the canonical His-Ser-Asp catalytic triad and mutation of the catalytic serine abolishes proteolytic activity (Skorko-Glonek et al., 1995). In BbHtrA, residues His119, Ser226 and Asp149 form the catalytic triad and mutation of serine 226 to alanine abolished proteolytic activity as expected (FIG. 5).
Reaction products were separated by SDS-PAGE and silver stained. Native collagen II and recombinant tenascin C were not degraded by BbHtrA indicating selectivity for proteoglycans, E-cadherin and fibronectin. FIG. 5 is an image of SDS-PAGE analysis showing that BbHtrA degrades aggrecan, neurocan, versican, brevican, biglycan, decorin, E-cadherin, and casein.

[2] = tested on: chondrocyte aggregate cultures; assay: Chondrocyte cytokine induction assay (Proteome Profiler Cytokine Arrays); format: cell-based, human
Excerpt: Chondrocyte aggregate cultures are used which form an extensive extracellular matrix with components characteristic of articular cartilage including aggrecan and type II collagen as described in Welter, J. et al, BioTechniques, 2007, 42(6):732-737; and Solchaga, L. A. et al., Chondrogenic Differentiation of Bone Marrow-Derived Mesenchymal Stem Cells: Tips and Tricks, 2011, 698:253-278.
To form the chondrocyte aggregate cultures, lx10^6 human mesenchymal stem cells (passage one, Lonza, catalog #PT-2501) were plated in a T150 flask (Corning) and cultured in growth media: mesenchymal stem cell basal media (MSCBM, Lonza, #PT-3238), mesenchymal growth supplements (SingleQuots, Lonza, #PT-4105), and 5 ng/ml recombinant human […] (Shenandoah Biotechnology). When confluent, cells were trypsin-released (0.5% trypsin EDTA, Gibco), expanded to two T150 flasks and fed with growth media every three days. When confluent, cells were harvested, resuspended in fresh growth media containing 5% DMSO and aliquots of 1×10^6 cells were cryopreserved in liquid nitrogen.
Human mesenchymal stem cells were used to promote chondrogenesis and chondrocyte aggregate formation for use in these studies. Two vials of passage three cryopreserved cells were thawed, plated in growth media in two T150 flasks and then expanded to six T150 flasks as above. Cells were harvested (0.5% trypsin EDTA, Gibco), pooled, enumerated and induced to chondrogenic differentiation as follows. Cells were resuspended in defined chondrocyte differentiation media: high glucose DMEM (Gibco), 50 μg/ml ascorbic acid-2-phosphate (Sigma), 39.3 ng/ml dexamethasone (Sigma), […] L-proline (Sigma), ITS+Premix (BD Biosciences), 10 ng/ml transforming growth factor β-3 (Shenandoah Biotechnology) and 30 μg/ml gentamicin sulfate+15 ng/ml amphotericin-B (GA-1000, Lonza, #PT-4504E). High density aggregates were obtained by plating, on average, 3×10^5 cells per well in a conical bottom 96 well plate (Thermo Scientific), pelleting by centrifugation (5 minutes at 600 g), and incubation at 37° C. and 5% CO2. Pellets formed coherent spherical aggregates by day two of culture. After seven days, wide bore tips were used to transfer aggregates to V-bottom 96 well plates (Corning). Aggregates were maintained in differentiation media at 37° C. and 5% CO2 for 3-5 weeks and fed every two days until experimentation.
For chondrocyte cytokine induction assays, 24 hours prior to experimentation, dexamethasone containing media was removed, aggregates were rinsed with DPBS (Gibco) and dexamethasone-free differentiation media was added. For experimentation, aggregates were transferred to 24 well plates (24 aggregates per condition), spent media was removed and fresh warmed dexamethasone-free media containing samples was added. Aggregates were then incubated at 37° C. and 5% CO2 for two days.
Recombinant BbHtrA or BbHtrA^S226A was added to culture medium and incubated with chondrocyte aggregate cultures. BbHtrA and BbHtrA^S226A were purified using an E. coli system and was expected to contain endotoxin which would have a stimulatory effect on the chondrocytes. To control for endotoxin contamination (lipopolysaccharide, LPS), an endotoxin removal kit (Noragen) was used to remove the bulk of LPS from recombinant BbHtrAs. The relative toxicity of the amount remaining in the BbHtrA and BbHtrA^S226A samples was determined by a chromogenic Limulus Amoebocyte Lysate (LAL) method (Lonza, Walkersville, Md.). Prior to addition to aggregates, LPS (44 ng, 200 EU), BbHtrA^WT (20 μg, 27.9 EU LPS) and BbHtrA^S226A ([…], 1.99 EU LPS) were incubated in 1 mg/ml polymyxin B sulfate (Sigma) on ice for 30 min with occasional mixing. Warmed dexamethasone-free medium was then added to each test condition to a final volume of 1 ml. Control aggregates were maintained in untreated medium also containing polymyxin B sulfate. The final concentration for all test conditions was 60 μg/ml polymyxin B sulfate. […]

[3] = spent medium of chondrocyte aggregates after 48 hours, cytokine array, background subtracted

B1: BbHtrA^S226A (protein)
chain: MEKKFFSGFLLSFLALSIGFFIGMHYLASNRSNIVFAEEKDNTVRALQDSFREVSKKILPSSVEVHATGVIKQSFPIPFFFFDMPEFDSERKSNWAGSGVIIGRDSQKKSLFYVVTNSHVVDKATELEVVSYDKKKHKAKLIGKDEKKDIALISFESDDATIKVADLGDSDKLEIGDWVMAVGSPFQFSFTVTAGIVSGLQRSANPNLQSRNLFIQTDAAINRGNAGGPLVNIKGEVIGINAWIASNSGGNIGLGFAIPVNNIKSTVDFFLKGKKIESAWLGISFYPLKTRDSEVLKSLGVESNDVSAAIIASLYPGSPAVKSGLRAGDIIMKVNGVSMSVFQDVTSYISDFYAGEKVNVEILRGNVKKNIEIVLAVRPKDKELSSSKMLPGFVVYPLVEDIKAQLNLRNWIKGVVVDYIDKNLASNIKMKSGDVILSVNSKSVSNLREFYDALEVGKNTYKILRGNDSFKITF
modifications: Mutant Borrelia burdorferi HtrA S226A
- Cleavage of recombinant human aggrecan (G1-IGD-G2 domains) within the IGD [1]: failed to generate these fragments
- Cytokines released by chondrocytes in response ([2]; additional experiments, FIG. 10: BbHtrA^WT, BbHtrA^S226A, LPS, medium alone): IL-8 and CXCL1
- GROα/CXCL1 pixel density, Mean [2, 3]: 0.647
- I-309/CCL1 pixel density, Mean [2, 3]: 0.163
- IL-6 pixel density, Mean [2, 3]: 0.309
- IL-8 pixel density, Mean [2, 3]: 1.187
- MCP-1/CCL2 pixel density, Mean [2, 3]: 0.050
- RANTES/CCL5 pixel density, Mean [2, 3]: 0.265
- sICAM-1/CD54 pixel density, Mean [2, 3]: 0.257
